Results from patent US12404345B2, “Humanized antibodies against iRHOM2” (SCIRHOM GMBH, priority 2021, dated 2025).

Columns and labels:
Conditions in all cases: antibody at 3 μg/ml
rabbit iRhom2 = test: FACS cross-reactivity on MEF-DKO-Rabbit-iR2-FL-WT-T7 cells; assay type: binding
Excerpt: (§1) Next, iRhom1/2−/− DKO MEFs stably expressing a tagged form of rhesus monkey, cynomolgus monkey, dog or rabbit iRhom2 were generated in order to determine cross-reactivity of the antibodies of the invention with the respective orthologue of iRhom2. iRhom1/2−/− DKO MEFs stably expressing a tagged form of rhesus monkey, cynomolgus monkey, dog or rabbit iRhom1 were generated to confirm specificity for iRhom2 versus iRhom1 of these species.
(§2) In brief, on day 1, Phoenix-ECO cells (American Type Culture Collection, USA) were seeded on 6-well tissue culture plates (Greiner, Germany) in standard growth medium at 8×10^5 cells per well and kept overnight at 37° C., 5% CO2. On day 2, the medium was replaced by fresh medium supplemented with chloroquine (Sigma-Aldrich, USA) at a final concentration of 25 μM. Applying the calcium phosphate method, cells were transfected with 2 μg/ml of pMSCV (Clontech, USA) empty vector, pMSCV-rhesus-iR2-FL-WT-T7 encoding rhesus monkey iRhom2 full length wild type C-terminally tagged with 3 consecutive copies of the T7 epitope, pMSCV-cyno-iR2-FL-WT-T7 encoding cynomolgus monkey iRhom2 full length wild type C-terminally tagged with 3 consecutive copies of the T7 epitope, pMSCV-dog-iR2-FL-WT-T7 encoding dog iRhom2 full length wild type C-terminally tagged with 3 consecutive copies of the T7 epitope or pMSCV-rabbit-iR2-FL-WT-T7 encoding rabbit iRhom2 full length wild type C-terminally tagged with 3 consecutive copies of the T7 epitope, respectively, and were kept at 37° C., 5% CO2. After 7 hours, the transfections were stopped by replacing cell supernatants with standard growth medium lacking chloroquine, and cells were incubated at 37° C., 5% CO2 to allow virus production overnight. In parallel, immortalized iRhom1/2−/− DKO MEFs as target cells for retroviral infection were seeded on 6-well tissue culture plates (Greiner, Germany) in standard growth medium at 1×10^5 cells per well and were also kept overnight at 37° C., 5% CO2. On day 3, the supernatants of Phoenix-ECO cells releasing pMSCV, pMSCV-rhesus-iR2-FL-WT-T7, pMSCV-cyno-iR2-FL-WT-T7, pMSCV-dog-iR2-FL-WT-T7 or pMSCV-rabbit-iR2-FL-WT-T7 ecotrophic virus, respectively were collected, filtered with 0.45 μm CA filters, and supplemented with 4 μg/ml of polybrene (Sigma-Aldrich, USA). Upon removal of medium from the immortalized iRhom1/2−/− DKO MEFs, the virus containing supernatants were added to the target cells for 4 hours at 37° C., 5% CO2 for first infection. Simultaneously, Phoenix-ECO cells were re-incubated with fresh medium, which, after another 4 hours, was filtered and used for the second infection of the respective target cell populations, again in the presence of 4 μg/ml of polybrene. Likewise, a third, but overnight infection cycle was performed. On day 4, virus containing cell supernatants were replaced by fresh standard growth medium. From day 5 onwards, cells were grown in the presence of 2 mg/ml of geneticin (G418, Thermo Fisher Scientific, USA) for the selection of immortalized MEF-DKO-EV control cells stably infected with pMSCV empty vector, pMSCV-rhesus-iR2-FL-WT-T7 cells stably expressing rhesus monkey iRhom2 full length wild type C-terminally tagged with 3 consecutive copies of the T7 epitope, pMSCV-cyno-iR2-FL-WT-T7 cells stably expressing cynomolgus monkey iRhom2 full length wild type C-terminally tagged with 3 consecutive copies of the T7 epitope, pMSCV-dog-iR2-FL-WT-T7 cells stably expressing dog iRhom2 full length wild type C-terminally tagged with 3 consecutive copies of the T7 epitope or pMSCV-rabbit-iR2-FL-WT-T7 cells stably expressing rabbit iRhom2 full length wild type C-terminally tagged with 3 consecutive copies of the T7 epitope, respectively. Upon propagation, cells were stocked for future usage. In parallel, iRhom1/2−/− DKO MEFs stably expressing a tagged form of rhesus monkey, cynomolgus monkey, dog or rabbit iRhom1 were generated in an analogous manner. […]

cynomolgus monkey iRhom1 = test: FACS binding on MEF-DKO-Cyno-iR1-FL-WT-T7 cells
Excerpt: as §1, §2

rhesus monkey iRhom2 = target: T1, rhesus monkey iRhom2 (Macaca mulatta, UniProt F6Y4X6); test: FACS cross-reactivity on MEF-DKO-Rhesus-iR2-FL-WT-T7 cells; assay type: binding
T1 construct: pMSCV-rhesus-iR2-FL-WT-T7 encoding rhesus monkey iRhom2 full length wild type; expressed in transfected cells; host or cells: immortalized iRhom1/2-/- DKO mouse embryonic fibroblasts, pMSCV retroviral infection
T1 sequence (F6Y4X6 1-827): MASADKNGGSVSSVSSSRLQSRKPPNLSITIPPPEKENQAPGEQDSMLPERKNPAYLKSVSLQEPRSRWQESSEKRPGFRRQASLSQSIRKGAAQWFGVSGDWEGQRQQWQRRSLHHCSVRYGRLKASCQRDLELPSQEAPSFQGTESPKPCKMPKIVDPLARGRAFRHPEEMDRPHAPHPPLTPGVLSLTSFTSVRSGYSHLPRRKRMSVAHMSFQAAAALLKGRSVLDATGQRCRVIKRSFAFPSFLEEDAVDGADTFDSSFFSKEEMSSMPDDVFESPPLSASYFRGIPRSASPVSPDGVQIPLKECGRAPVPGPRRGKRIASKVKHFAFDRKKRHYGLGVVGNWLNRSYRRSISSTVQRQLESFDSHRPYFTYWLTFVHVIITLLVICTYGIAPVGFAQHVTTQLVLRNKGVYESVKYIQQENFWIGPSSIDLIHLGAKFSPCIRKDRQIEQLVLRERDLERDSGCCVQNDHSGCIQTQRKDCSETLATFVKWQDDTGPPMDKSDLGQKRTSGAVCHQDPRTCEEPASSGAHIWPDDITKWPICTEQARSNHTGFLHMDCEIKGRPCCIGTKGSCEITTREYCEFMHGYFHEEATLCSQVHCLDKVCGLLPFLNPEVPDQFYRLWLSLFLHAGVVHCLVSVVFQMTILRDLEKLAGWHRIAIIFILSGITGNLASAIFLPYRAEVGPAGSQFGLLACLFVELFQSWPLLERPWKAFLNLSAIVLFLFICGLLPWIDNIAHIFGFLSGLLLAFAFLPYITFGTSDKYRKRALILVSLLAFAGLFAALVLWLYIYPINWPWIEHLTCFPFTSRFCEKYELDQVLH
Excerpt: as §1, §2

Row | Molecule | binding to rabbit iRhom2 on MEF-DKO-Rabbit-iR2-FL-WT-T7 cells (rabbit iRhom2) | binding to cynomolgus monkey iRhom1 on MEF-DKO-Cyno-iR1-FL-WT-T7 cells (cynomolgus monkey iRhom1) | binding to rhesus monkey iRhom2 on MEF-DKO-Rhesus-iR2-FL-WT-T7 cells (rhesus monkey iRhom2)
1 | 16-B-03: humanized antibody binding human iRhom2; HCVD SEQ ID NO 1, LCVD SEQ ID NO 5 (antibody, V domains shown, antibody sequences) VH: QVTLRESGPALVKPTQTLTLTCTFSGFSLSTFALGVGWIRQPPGKALEWLAHIWWDDDKYYNPALKSRLTISKDTSKNQVVLTITNMDPVDTATYYCARITTYYYGMDYWGQGTLVTVSS VL: EIVMTQSPDFQSVTPKEKVTITCRASQSIGNHLHWYQQKPDASPKLLIKYASQSISGVPSRFSGSGSGTDFTLTINSLEAEDAATYFCQQSYQWPLTFGQGTKLEIK | Strong binding | no significant binding | Strong binding
2 | 16-B-05: humanized antibody binding human iRhom2; HCVD SEQ ID NO 9, LCVD SEQ ID NO 13 (antibody, V domains shown, antibody sequences) VH: QVTLRESGPALVKPTQTLTLTCTFSGFSLSTFALGVGWIRQPPGKALEWLAHIWWDEDKYYNPALKSRLTISKDTSKNQVVLTITNMDPVDTATYYCARITTYYYGMDYWGQGTLVTVSS VL: EIVMTQSPDFQSVTPKEKVTITCRASQSIGNHLHWYQQKPDASPKLLIKYASQSISGVPSRFSGSGSGTDFTLTINSLEAEDAATYFCQQSYNWPLTFGQGTKLEIK | recognize rabbit iRhom2 | do not recognize cynomolgus monkey iRhom1 | recognize rhesus monkey iRhom2
3 | 16-B-07: humanized antibody binding human iRhom2; HCVD SEQ ID NO 17, LCVD SEQ ID NO 21 (antibody, V domains shown, antibody sequences) VH: QVTLRESGPALVKPTQTLTLTCTFSGFSLSTFALGVGWIRQPPGKALEWLAHIWWDEDKYYNPALKSRLTISKDTSKNQVVLTITNMDPVDTATYYCARITTYYYGMDYWGQGTLVTVSS VL: EIVMTQSPDFQSVTPKEKVTITCRASQSIGNHLHWYQQKPDASPKLLIKYASQSISGVPSRFSGSGSGTDFTLTINSLEAEDAATYFCQQSYQWPLTFGQGTKLEIK | recognize rabbit iRhom2 | do not recognize cynomolgus monkey iRhom1 | recognize rhesus monkey iRhom2
4 | 23-B-04: humanized antibody binding human iRhom2; HCVD SEQ ID NO 25, LCVD SEQ ID NO 29 (antibody, V domains shown, antibody sequences) VH: QVTLRESGPALVKPTQTLTLTCTFSGFSLSTFGMGVGWIRQPPGKALEWLAHIWWDDEKYYNSALKSRLTISKDTSKNQVVLTITNMDPVDTATYYCARISNYGSNYWYFNVWGQGTLVTVSS VL: AIQLTQSPSSLSASVGDRVTITCRASSSVSYMYWYQQKPGKAPKVLIYDTSNLASGVPSRFSGSGSGTDYTLTISSLQPEDFATYYCQQWNAYPLTFGQGTKLEIK | recognize rabbit iRhom2 | do not recognize cynomolgus monkey iRhom1 | recognize rhesus monkey iRhom2
5 | 42-B-02: humanized antibody binding human iRhom2; HCVD SEQ ID NO 33, LCVD SEQ ID NO 37 (antibody, V domains shown, antibody sequences) VH: QVTLRESGPALVKPTQTLTLTCTFSGFSLSTFGRGVGWIRQPPGKALEWLAHIWWDDEKYYNSALKSRLTISKDTSKNQVVLTITNMDPVDTATYYCARIQNYGSNYWYFDVWGQGTLVTVSS VL: AIQLTQSPSSLSASVGDRVTITCRASSRISYMFWYQQKPGKAPKVLIYDTSNLASGVPSRFSGSGSGTDYTLTISSLQPEDFATYYCQQWNSYPLTFGQGTKLEIK | recognize rabbit iRhom2 | do not recognize cynomolgus monkey iRhom1 | recognize rhesus monkey iRhom2
6 | 42-B-04: humanized antibody binding human iRhom2; HCVD SEQ ID NO 41, LCVD SEQ ID NO 45 (antibody, V domains shown, antibody sequences) VH: QVTLRESGPALVKPTQTLTLTCTFSGFSLSTFGRGVGWIRQPPGKALEWLAHIWWDDEKYYNSALKSRLTISKDTSKNQVVLTITNMDPVDTATYYCARIQNYGSNYWYFDVWGQGTLVTVSS VL: AIQLTQSPSSLSASVGDRVTITCRASSRISYMFWYQQKPGKAPKVLIYDTSNLASGVPSRFSGSGSGTDYTLTISSLQPEDFATYYCQQWNAYPLTFGQGTKLEIK | recognize rabbit iRhom2 | do not recognize cynomolgus monkey iRhom1 | recognize rhesus monkey iRhom2
